Results: patent US20260055205A1 (published 2026)
Substitutions are numbered along the chain they refer to. Names and notes keep the numbering of the source.

B1: PSMA.319 (bispecific antibody, V domains shown)
VH: QVQLVESGGGVVQPGRSLRLSCAASGRTFGIYVMGWFRQAPGKEREFVGAISWSGSNRKVSDSVKGRFTISRDNSKNTLYLQMNSLRAEDTAVNYCAGSNKLYGRTWYDFNESDYWGQGTQVTVSS
notes: TCE with CD3.23; also called AC3721
B2: PSMA.326 (bispecific antibody, V domains shown)
VH: B1 VH with Y95F, G98A
notes: TCE with CD3.23; also called AC3728
B3: PSMA.339 (bispecific antibody, V domains shown)
VH: B1 VH with Y95F
notes: TCE with CD3.23; also called AC3741
B4: PSMA.360 (bispecific antibody, V domains shown)
VH: B1 VH with M34W, I51M
notes: TCE with CD3.23; also called AC3762
B5: PSMA.334 (bispecific antibody, V domains shown)
VH: B1 VH with N94Y, Y95F, G98A, L102D
notes: TCE with CD3.23; also called AC3736
B6: PSMA.351 (bispecific antibody, V domains shown)
VH: B1 VH with M34W, I51M, N94Y, G98A, L102G
notes: TCE with CD3.23; also called AC3753
B7: PSMA.349 (bispecific antibody, V domains shown)
VH: B1 VH with M34W, I51M, N94Y, G98A, L102D
notes: TCE with CD3.23; also called AC3751
B8: PSMA.343 (bispecific antibody, V domains shown)
VH: B1 VH with N94T, Y95F
notes: TCE with CD3.23; also called AC3745
B9: PSMA.322 (bispecific antibody, V domains shown)
VH: B1 VH with N94S
notes: TCE with CD3.23; also called AC3724
B10: PSMA.338 (bispecific antibody, V domains shown)
VH: B1 VH with N94R, Y95F
notes: TCE with CD3.23; also called AC3740
B11: PSMA.336 (bispecific antibody, V domains shown)
VH: B1 VH with N94Y, Y95F, G98A, L102G
notes: TCE with CD3.23; also called AC3738
B12: PSMA.342 (bispecific antibody, V domains shown)
VH: B1 VH with N94S, Y95F
notes: TCE with CD3.23; also called AC3744
B13: PSMA.327 (bispecific antibody, V domains shown)
VH: B1 VH with N94D, Y95F, G98A
notes: TCE with CD3.23; also called AC3729
B14: PSMA.330 (bispecific antibody, V domains shown)
VH: B1 VH with N94S, Y95F, G98A
notes: TCE with CD3.23; also called AC3732
B15: PSMA.346 (bispecific antibody, V domains shown)
VH: B1 VH with M34W, I51M, N94D, G98A
notes: TCE with CD3.23; also called AC3748
B16: PSMA.324 (bispecific antibody, V domains shown)
VH: B1 VH with N94A, Y95F, G98A
notes: TCE with CD3.23; also called AC3726
B17: PSMA.320 (bispecific antibody, V domains shown)
VH: B1 VH with N94G
notes: TCE with CD3.23; also called AC3722
B18: PSMA.333 (bispecific antibody, V domains shown)
VH: B1 VH with N94Y, Y95F, G98A, L102R
notes: TCE with CD3.23; also called AC3735
B19: PSMA.359 (bispecific antibody, V domains shown)
VH: B1 VH with M34W, I51M, N94R
notes: TCE with CD3.23; also called AC3761
B20: PSMA.350 (bispecific antibody, V domains shown)
VH: B1 VH with M34W, I51M, N94Y, G98A, L102E
notes: TCE with CD3.23; also called AC3752
B21: PSMA.347 (bispecific antibody, V domains shown)
VH: B1 VH with M34W, I51M, N94Y, A97G, G98A
notes: TCE with CD3.23; also called AC3749
B22: PSMA.356 (bispecific antibody, V domains shown)
VH: B1 VH with M34W, I51M, N94Y, Y95F, G98A, L102E
notes: TCE with CD3.23; also called AC3758
B23: PSMA.340 (bispecific antibody, V domains shown)
VH: B1 VH with N94G, Y95F
notes: TCE with CD3.23; also called AC3742
B24: PSMA.352 (bispecific antibody, V domains shown)
VH: B1 VH with M34W, I51M, N94D, Y95F, G98A
notes: TCE with CD3.23; also called AC3754
B25: PSMA.357 (bispecific antibody, V domains shown)
VH: B1 VH with M34W, I51M, N94Y, Y95F, G98A, L102G
notes: TCE with CD3.23; also called AC3759
B26: PSMA.325 (bispecific antibody, V domains shown)
VH: B1 VH with N94R, Y95F, G98A
notes: TCE with CD3.23; also called AC3727
B27: PSMA.321 (bispecific antibody, V domains shown)
VH: B1 VH with N94K
notes: TCE with CD3.23; also called AC3723
B28: PSMA.331 (bispecific antibody, V domains shown)
VH: B1 VH with N94Y, Y95F, A97G, G98A
notes: TCE with CD3.23; also called AC3733
B29: PSMA.335 (bispecific antibody, V domains shown)
VH: B1 VH with N94Y, Y95F, G98A, L102E
notes: TCE with CD3.23; also called AC3737
B30: PSMA.358 (bispecific antibody, V domains shown)
VH: B1 VH with M34W, I51M, N94Y, Y95F, A97G
notes: TCE with CD3.23; also called AC3760
B31: PSMA.345 (bispecific antibody, V domains shown)
VH: B1 VH with M34W, I51M, N94Y, A97G
notes: TCE with CD3.23; also called AC3747
B32: PSMA.332 (bispecific antibody, V domains shown)
VH: B1 VH with N94Y, Y95F
notes: TCE with CD3.23; also called AC3734
B33: PSMA.337 (bispecific antibody, V domains shown)
VH: B1 VH with N94A, Y95F
notes: TCE with CD3.23; also called AC3739
B34: PSMA.353 (bispecific antibody, V domains shown)
VH: B1 VH with M34W, I51M, N94Y, Y95F, A97G, G98A
notes: TCE with CD3.23; also called AC3755
B35: PSMA.329 (bispecific antibody, V domains shown)
VH: B1 VH with N94K, Y95F, G98A
notes: TCE with CD3.23; also called AC3731
B36: PSMA.341 (bispecific antibody, V domains shown)
VH: B1 VH with N94K, Y95F
notes: TCE with CD3.23; also called AC3743
B37: PSMA.328 (bispecific antibody, V domains shown)
VH: B1 VH with N94G, Y95F, G98A
notes: TCE with CD3.23; also called AC3730
B38: PSMA.355 (bispecific antibody, V domains shown)
VH: B1 VH with M34W, I51M, N94Y, Y95F, G98A, L102D
notes: TCE with CD3.23; also called AC3757
B39: PSMA.323 (bispecific antibody, V domains shown)
VH: B1 VH with N94T
notes: TCE with CD3.23; also called AC3725
B40: CD3.23-D (bispecific antibody, V domains shown)
VH: EVQLLESGGGIVQPGGSLKLSCAASGFTFNTYAMNWVRQAPGKGLEWVARIRSKYNNYATYYADSVKDRFTISRDDSKNTVYLQMNNLKTEDTAVYYCVRHENFGNSYVSWFAHWGQGTLVTVSS
VL: ELVVTQEPSLTVSPGGTVTLTCRSSNGAVTSSNYANWVQQKPGQAPRGLIGGTNKRAPGTPARFSGSLLGGKAALTLSGVQPEDEAVYYCALWYPNLWVFGGGTKLTVL
notes: paTCE with PSMA.5; also called AC3366; WT
B41: CD3.45 (bispecific antibody, V domains shown)
VH: B40 VH with V48W
VL: B40 VL
notes: paTCE with PSMA.5; also called AC3374; V48W
B42: CD3.42 (bispecific antibody, V domains shown)
VH: B40 VH with V48G
VL: B40 VL
notes: paTCE with PSMA.5; also called AC3371; V48G
B43: CD3.44 (bispecific antibody, V domains shown)
VH: B40 VH with V48T
VL: B40 VL
notes: paTCE with PSMA.5; also called AC3373; V48T
B44: CD3.38 (bispecific antibody, V domains shown)
VH: B40 VH with W47D
VL: B40 VL
notes: paTCE with PSMA.5; also called AC3367; W47D
B45: CD3.54 (bispecific antibody, V domains shown)
VH: B40 VH with I51A
VL: B40 VL
notes: paTCE with PSMA.5; also called AC3383; I51A
B46: CD3.39 (bispecific antibody, V domains shown)
VH: B40 VH with W47E
VL: B40 VL
notes: paTCE with PSMA.5; also called AC3368; W47E
B47: CD3.40 (bispecific antibody, V domains shown)
VH: B40 VH with V48A
VL: B40 VL
notes: paTCE with PSMA.5; also called AC3369; V48A
B48: CD3.48 (bispecific antibody, V domains shown)
VH: B40 VH with A49G
VL: B40 VL
notes: paTCE with PSMA.5; also called AC3377; A49G
B49: CD3.60 (bispecific antibody, V domains shown)
VH: B40 VH with R52Q
VL: B40 VL
notes: paTCE with PSMA.5; also called AC3389; R52Q
B50: CD3.56 (bispecific antibody, V domains shown)
VH: B40 VH with I51T
VL: B40 VL
notes: paTCE with PSMA.5; also called AC3385; I51T
B51: CD3.67 (bispecific antibody, V domains shown)
VH: B40 VH with S53T
VL: B40 VL
notes: paTCE with PSMA.5; also called AC3396; S52aT
B52: CD3.41 (bispecific antibody, V domains shown)
VH: B40 VH with V48E
VL: B40 VL
notes: paTCE with PSMA.5; also called AC3370; V48E
B53: CD3.43 (bispecific antibody, V domains shown)
VH: B40 VH with V48S
VL: B40 VL
notes: paTCE with PSMA.5; also called AC3372; V48S

molecular target: T1, human PSMA (human, UniProt Q04609 44-750, limits assumed); assay: binding screen
T1 construct: also called huPSMA; hPSMA
T1 sequence (Q04609 44-750 limits assumed): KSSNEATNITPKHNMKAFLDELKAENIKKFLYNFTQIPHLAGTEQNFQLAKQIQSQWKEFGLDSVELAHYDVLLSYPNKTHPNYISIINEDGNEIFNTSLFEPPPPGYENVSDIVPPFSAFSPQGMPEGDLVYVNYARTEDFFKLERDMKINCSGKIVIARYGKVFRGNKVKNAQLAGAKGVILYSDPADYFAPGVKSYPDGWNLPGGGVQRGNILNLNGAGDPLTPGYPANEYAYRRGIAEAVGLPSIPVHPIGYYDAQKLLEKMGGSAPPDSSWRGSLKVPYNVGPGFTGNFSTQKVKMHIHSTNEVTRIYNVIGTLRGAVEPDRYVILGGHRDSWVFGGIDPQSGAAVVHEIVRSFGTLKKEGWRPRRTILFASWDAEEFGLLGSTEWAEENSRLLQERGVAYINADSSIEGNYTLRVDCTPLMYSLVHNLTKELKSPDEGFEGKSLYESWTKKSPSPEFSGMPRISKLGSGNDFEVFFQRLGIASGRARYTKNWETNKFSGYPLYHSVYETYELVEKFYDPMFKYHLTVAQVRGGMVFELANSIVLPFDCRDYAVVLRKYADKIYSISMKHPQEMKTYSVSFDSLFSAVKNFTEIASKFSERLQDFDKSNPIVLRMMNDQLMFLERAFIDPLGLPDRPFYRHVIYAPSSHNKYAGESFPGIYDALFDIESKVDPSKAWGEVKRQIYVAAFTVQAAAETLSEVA

Binder	binding result	Kd [nM]
B1	no binding	
B2	no binding	
B3	no binding	
B4	no binding	
B5		70.6
B6		32.6
B7		18
B8	no binding	
B9	no binding	
B10	no binding	
B11		129
B12	no binding	
B13	no binding	
B14	no binding	
B15	no binding	
B16	no binding	
B17	no binding	
B18	no binding	
B19	no binding	
B20		7.4

Binder	binding result	Kd [nM]
B21		7.3
B22		7.8
B23	no binding	
B24	no binding	
B25		24.6
B26	no binding	
B27	no binding	
B28		12.1
B29		24.8
B30		6.5
B31		6.1
B32		24.1
B33	no binding	
B34		5.1
B35	no binding	
B36	no binding	
B37	no binding	
B38		17.8
B39	no binding	

molecular target: T2, human CD3 epsilon (human, UniProt P07766 23-126, limits assumed); assay: Octet, crude lysate
T2 construct: also called huCD3e
Source text: To achieve this, Pool 1 was created, which included 74 paTCE molecules, each containing PSMA.5 and one of the 74 CD3.23 mutation variants. Single mutations were chosen based on analyses including CD3.23 PTE score analysis (using internal PTE algorithm v12) and structural analysis. Structural considerations included: possible contact disruption, anticipated steric clashes, side chain charge maintenance and possible pockets filling. Stability and affinity of the individually expressed molecules in the form of crude lysate was evaluated by Octet (ForteBio).

T2 sequence (P07766 23-126 limits assumed): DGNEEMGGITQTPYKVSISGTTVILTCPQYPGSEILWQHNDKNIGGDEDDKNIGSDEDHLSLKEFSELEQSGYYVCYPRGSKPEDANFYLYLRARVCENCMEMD

Binder	Kd [nM]
B40	14
B41	34300
B42	71.5
B43	5.7
B44	40.2
B45	1180
B46	18.1
B47	8.3
B48	4.5
B49	434
B50	425
B51	4.8
B52	165
B53	11.2
